Assay results as given in the RNAGym collection of RNA variant scans (doi:10.7554/elife.90254).

B1: LINE1-full (parent)
chain: UACGUAGGUGGUUUUCCCCUGAUAGUGCUAAGGGGGCCUGGAAGUUUGGACUGGGCAGAGCUCAACACAGCGUGGCAAAGUGGCUGUGGCUAGACUGCCUCUCUGGAUUCCUCGUCACUCAGCAGGGCAUCUCUGAGAGAAAUGCC

Variants of: B1
Test: self-cleavage, relative activity (ratio to wild type); higher = more cleavage; in vitro, sequencing; the parent is a self-cleaving ribozyme
In the case of UACGUAGGUGGUUUUCCCCUGAUAGUGCUAAGGGGGCCUGGAAGUUUGGACUGGGCAGGGCUCAACACAGCGUGGCAAAGUGGCUGUGGCUAGACUGCCUCUCUGGAUUCCUCGUCACUCAGCAGGACAUCUCUGAGAGAAAUGCC [A59G G127A], the self-cleavage is reported as 0.07. UACGUAGGUGGUUUUCCCCUGAUAGUGCUAAGGGGGCCUGGAAGUUUGGACUGGGCAGGGCUCAACACAGCGCGGCAAAGUGGCUGUGGCUAGACUGCCUCUCUGGAUUCCUCGUCACUCAGCAGGGCAUCUCUGAGAGAAAUGCC [A59G U73C] gave a self-cleavage of 0.07. Variant UACGUAGGUGGUUUUCCCCUGAUAGUGCUAAGGGGGCCUGGAAGUUUGGACUGGGCAGUGCUCAACACAGCGUGGCAAAGUGGCUGUGGCUAGACUGCCUCUCUGGAUUCCUCGUCUCUCAGCAGGGCAUCUCUGAGAGAAAUGCC [A59U A117U] has a self-cleavage of 0.8. In the case of UACGUAGGUGGUUUUCCCCUGAUAGUGCUAAGGGGGCCUGGAAGUUUGGACUGGGCAGGGCUCAACACAGCGUGGCAAAGUGGCUGUGGCUAGACUGCCUCUCUGGAUUCCUCGUCACUCAGCAGGGCAUCUCUGAGAGAAAAGCC [A59G U143A], the self-cleavage is reported as 0.08. UACGUAGGUGGUUUUCCCCUGAUAGUGCUAAGGGGGCCUGGAAGUUUGGACUGGGCAGGGCUCAACACAGCGUGGCAAAGUGGCUGUGGCUAGACUGCCUCUCUGGAUUCCUCGUCACUCAGCAGGGCAUCACUGAGAGAAAUGCC [A59G U132A] gave a self-cleavage of 0.06. Work on UACGUAGGUGGUUUUCCCCUGAUAGUGCUAAGGGGGCCUGGAAGUUUGGACUGGGCAGUGCUCAACACAGUGUGGCAAAGUGGCUGUGGCUAGACUGCCUCUCUGGAUUCCUCGUCACUCAGCAGGGCAUCUCUGAGAGAAAUGCC [A59U C71U] yielded a self-cleavage of 0.64. UACGUAGGUGGUUUUCCCCUGAUAGUGCUAAGGGGGCCUGGAAGUUUGGACUGGGCAGUGCUCAACACAGCGUGGCAAAGUGGCUGUGGCUAGACUGCUUCUCUGGAUUCCUCGUCACUCAGCAGGGCAUCUCUGAGAGAAAUGCC [A59U C99U] gave a self-cleavage of 0.46. Variant UACGUAGGUGGUUUUCCCCUGAUAGUGCUAAGGGGGCCUGGAAGUUUGGACUGGGCAGUGCUCAACACAGCGUGGCAAGGUGGCUGUGGCUAGACUGCCUCUCUGGAUUCCUCGUCACUCAGCAGGGCAUCUCUGAGAGAAAUGCC [A59U A79G] has a self-cleavage of 0.83. In the case of UACGUAGGUGGUUUUCCCCUGAUAGUGCUAAGGGGGCCUGGAAGUUUGGACUGGGCAGGGCUCAACACAGCGUGGCAAAGUGGCUGUGGCCAGACUGCCUCUCUGGAUUCCUCGUCACUCAGCAGGGCAUCUCUGAGAGAAAUGCC [A59G U91C], the self-cleavage is reported as 0.11. Variant UACGUAGGUGGUUUUCCCCUGAUAGUGCUAAGGGGGCCUGGAAGUUUGGACUGGGCAGGGCUCAACACAGCGUGGCAAAGUGGCUGUGGCAAGACUGCCUCUCUGGAUUCCUCGUCACUCAGCAGGGCAUCUCUGAGAGAAAUGCC [A59G U91A] has a self-cleavage of 0.09. Work on UACGUAGGUGGUUUUCCCCUGAUAGUGCUAAGGGGGCCUGGAAGUUUGGACUGGGCAGUGCUCGACACAGCGUGGCAAAGUGGCUGUGGCUAGACUGCCUCUCUGGAUUCCUCGUCACUCAGCAGGGCAUCUCUGAGAGAAAUGCC [A59U A64G] yielded a self-cleavage of 0.09. For UACGUAGGUGGUUUUCCCCUGAUAGUGCUAAGGGGGCCUGGAAGUUUGGACUGGGCAGUGCUCAACACAGCGUGGCAAAGUGGCUGUGGCUAGACUGCCUCUCUGGAUUCCUCGUCACUCAGCAGGGCAUCUCUGGGAGAAAUGCC [A59U A136G], the self-cleavage was 1.1. Variant UACGUAGGUGGUUUUCCCCUGAUAGUGCUAAGGGGGCCUGGAAGUUUGGACUGGGCAGUGCUCAACACAGCGUGGCAAAGUGGCUGUGGCUAGACUGCCUCUCUGGAUUCCUCGUCACUCAGCAGGGCAUCUCUGAGAGGAAUGCC [A59U A140G] has a self-cleavage of 0.89. For UACGUAGGUGGUUUUCCCCUGAUAGUGCUAAGGGGGCCUGGAAGUUUGGACUGGGCAGUGCUAAACACAGCGUGGCAAAGUGGCUGUGGCUAGACUGCCUCUCUGGAUUCCUCGUCACUCAGCAGGGCAUCUCUGAGAGAAAUGCC [A59U C63A], the self-cleavage was 0.02. UACGUAGGUGGUUUUCCCCUGAUAGUGCUAAGGGGGCCUGGAAGUUUGGACUGGGCAGUGCUCAACACAGCGUGGCAAAGUGGCUGUGGCUAGAUUGCCUCUCUGGAUUCCUCGUCACUCAGCAGGGCAUCUCUGAGAGAAAUGCC [A59U C95U] showed a self-cleavage of 0.19. With UACGUAGGUGGUUUUCCCCUGAUAGUGCUAAGGGGGCCUGGAAGUUUGGACUGGGCAGGGCUCAACACAGCGUGGCAAAGUGGCUGUGGCUAGACUGCCUCUCUGGAUUCCUCGUCACUCAGCAGGGCAUCUCAGAGAGAAAUGCC [A59G U134A] the self-cleavage was 0.08. UACGUAGGUGGUUUUCCCCUGAUAGUGCUAAGGGGGCCUGGAAGUUUGGACUGGGCAGUGCUCAGCACAGCGUGGCAAAGUGGCUGUGGCUAGACUGCCUCUCUGGAUUCCUCGUCACUCAGCAGGGCAUCUCUGAGAGAAAUGCC [A59U A65G] gave a self-cleavage of 0.03. UACGUAGGUGGUUUUCCCCUGAUAGUGCUAAGGGGGCCUGGAAGUUUGGACUGGGCAGGGCUCAACACAGCGUGGCAAAGUGGCUGUGGCUAGACUGCCUCUCAGGAUUCCUCGUCACUCAGCAGGGCAUCUCUGAGAGAAAUGCC [A59G U104A] gave a self-cleavage of 0.14. For UACGUAGGUGGUUUUCCCCUGAUAGUGCUAAGGGGGCCUGGAAGUUUGGACUGGGCAGGGCUCAACACAGCGUGGCAAAGUGGCUGUGGCUAGACUGCCUCUCUGGAUCCCUCGUCACUCAGCAGGGCAUCUCUGAGAGAAAUGCC [A59G U109C], the self-cleavage was 0.17. In the case of UACGUAGGUGGUUUUCCCCUGAUAGUGCUAAGGGGGCCUGGAAGUUUGGACUGGGCAGUGCUCAACACAGCGUGGCAAAGUGGCUGUGGCUAGACUGCCUCUCUGGAUUCCUCGUCACUCAGCAGGGCAUCUCUGAGAGAAGUGCC [A59U A142G], the self-cleavage is reported as 1.08. For UACGUAGGUGGUUUUCCCCUGAUAGUGCUAAGGGGGCCUGGAAGUUUGGACUGGGCAGUGCUCAACACAGCGUGGCAAAGUGGCUGUGGCUAGACUGCCUCUCUGGAUUCCUCGUCACUCAGCAGGGCAUCUCUGAGAGAACUGCC [A59U A142C], the self-cleavage was 1.03. Variant UACGUAGGUGGUUUUCCCCUGAUAGUGCUAAGGGGGCCUGGAAGUUUGGACUGGGCAGUGCUCAACUCAGCGUGGCAAAGUGGCUGUGGCUAGACUGCCUCUCUGGAUUCCUCGUCACUCAGCAGGGCAUCUCUGAGAGAAAUGCC [A59U A67U] has a self-cleavage of 0.1. Work on UACGUAGGUGGUUUUCCCCUGAUAGUGCUAAGGGGGCCUGGAAGUUUGGACUGGGCAGUGCUCAACACAGCGUGGCAAAGUGGCUGUGGCUAGACUGCCUCUCUGGAUUCCUCGUCACUCAGCAGGGCUUCUCUGAGAGAAAUGCC [A59U A129U] yielded a self-cleavage of 0.51. With UACGUAGGUGGUUUUCCCCUGAUAGUGCUAAGGGGGCCUGGAAGUUUGGACUGGGCAGUGCUCAACACAGCGUGGCAAAGUGGCUGUGGCUAGACUGCCUCUCUGGAUUCCUCGUCACUCAGCAGGGCGUCUCUGAGAGAAAUGCC [A59U A129G] the self-cleavage was 0.86. UACGUAGGUGGUUUUCCCCUGAUAGUGCUAAGGGGGCCUGGAAGUUUGGACUGGGCAGUGCUCAACACAGCGUGGCAAAGUGGCUGUGGCUAGACUGCCUCUCUGGAUUCCUCGUCACUCAGCAGGGCCUCUCUGAGAGAAAUGCC [A59U A129C] showed a self-cleavage of 1.15. For UACGUAGGUGGUUUUCCCCUGAUAGUGCUAAGGGGGCCUGGAAGUUUGGACUGGGCAGUGCUCAACACUGCGUGGCAAAGUGGCUGUGGCUAGACUGCCUCUCUGGAUUCCUCGUCACUCAGCAGGGCAUCUCUGAGAGAAAUGCC [A59U A69U], the self-cleavage was 0.04. In the case of UACGUAGGUGGUUUUCCCCUGAUAGUGCUAAGGGGGCCUGGAAGUUUGGACUGGGCAGUGCUCAACACAGCGUGGCAAAGUGGCUGUGGCUAGACUGCCUCUCUGGAUUCCUCGUCACUCAGCAGGGCAUCUCUGAGAGAUAUGCC [A59U A141U], the self-cleavage is reported as 1.03. In the case of UACGUAGGUGGUUUUCCCCUGAUAGUGCUAAGGGGGCCUGGAAGUUUGGACUGGGCAGUGCUCAACACAGCGUGGCAAAGUGGCUGUGGCUAGACUGCCUCUCUGGAUUCCUCGUCACUCAGCAGGGCAUCUCUGAGAGAGAUGCC [A59U A141G], the self-cleavage is reported as 0.96. Variant UACGUAGGUGGUUUUCCCCUGAUAGUGCUAAGGGGGCCUGGAAGUUUGGACUGGGCAGGGCUCAACACAGCGUGGCAAAGUGGCUGUGGCUAGACAGCCUCUCUGGAUUCCUCGUCACUCAGCAGGGCAUCUCUGAGAGAAAUGCC [A59G U96A] has a self-cleavage of 0.07. In the case of UACGUAGGUGGUUUUCCCCUGAUAGUGCUAAGGGGGCCUGGAAGUUUGGACUGGGCAGGGCUCAACACAGCGUGGCAAAGUGGCUGUGGCUAGACUGCCUCUCUGGAUUCCACGUCACUCAGCAGGGCAUCUCUGAGAGAAAUGCC [A59G U112A], the self-cleavage is reported as 0.09. With UACGUAGGUGGUUUUCCCCUGAUAGUGCUAAGGGGGCCUGGAAGUUUGGACUGGGCAGGGCUCAACACAGCGUGGCAAAGUGGCUGUGGCUAGACUGCCUCUCUGGAUUCCCCGUCACUCAGCAGGGCAUCUCUGAGAGAAAUGCC [A59G U112C] the self-cleavage was 0.13. UACGUAGGUGGUUUUCCCCUGAUAGUGCUAAGGGGGCCUGGAAGUUUGGACUGGGCAGGGCUCAACACAGCGUGGCAAAGUGGCUGUGGCUAGACUGCCUCUCUGGAUUCCUCGUCACUCAGCAGAGCAUCUCUGAGAGAAAUGCC [A59G G126A] showed a self-cleavage of 0.12. UACGUAGGUGGUUUUCCCCUGAUAGUGCUAAGGGGGCCUGGAAGUUUGGACUGGGCAGGGCUCAACACAGCGUGGCAAAGUGGCUGUGGCUAGACUGCCUCUCUGGAUUCCUCGUCACUCAGCAGGGCAUCUCUGAGAGAAAUACC [A59G G144A] showed a self-cleavage of 0.12. Variant UACGUAGGUGGUUUUCCCCUGAUAGUGCUAAGGGGGCCUGGAAGUUUGGACUGGGCAGUGCUCAACACAGCGUGGCAAAGUGGCUGUGGCUAGACUGCCUCUCUGGAUUCCUCGUCACUCAGCAGGGCAUCUCUGAGGGAAAUGCC [A59U A138G] has a self-cleavage of 0.83. In the case of UACGUAGGUGGUUUUCCCCUGAUAGUGCUAAGGGGGCCUGGAAGUUUGGACUGGGCAGUGCUCAACACAGCGUGGCAAAGUGGCUGUGGCUAGACUGCCUCUCUGGAUUCCUCGUCACUCAGCAGGGCAUCUCUGAGUGAAAUGCC [A59U A138U], the self-cleavage is reported as 0.88. Variant UACGUAGGUGGUUUUCCCCUGAUAGUGCUAAGGGGGCCUGGAAGUUUGGACUGGGCAGUGCUCAACACAGCGUGGCAAAGUGGCUGUGGCUAGACUGCCUCUCUGGAUUCCUCGUCACUCAGCAGGGCAUCUCUGAGCGAAAUGCC [A59U A138C] has a self-cleavage of 1.23. Variant UACGUAGGUGGUUUUCCCCUGAUAGUGCUAAGGGGGCCUGGAAGUUUGGACUGGGCAGGGCUCAACACAGCGUGGCAAAGUGGCUGUGGCUAGACUGCCUCUCUGGAUUCCUCCUCACUCAGCAGGGCAUCUCUGAGAGAAAUGCC [A59G G114C] has a self-cleavage of 0.03. UACGUAGGUGGUUUUCCCCUGAUAGUGCUAAGGGGGCCUGGAAGUUUGGACUGGGCAGGGCUCAACACAGCGUGGCAAAGCGGCUGUGGCUAGACUGCCUCUCUGGAUUCCUCGUCACUCAGCAGGGCAUCUCUGAGAGAAAUGCC [A59G U81C] showed a self-cleavage of 0.09. UACGUAGGUGGUUUUCCCCUGAUAGUGCUAAGGGGGCCUGGAAGUUUGGACUGGGCAGGGCUCAACACAGCGUGGCAAAGAGGCUGUGGCUAGACUGCCUCUCUGGAUUCCUCGUCACUCAGCAGGGCAUCUCUGAGAGAAAUGCC [A59G U81A] showed a self-cleavage of 0.1.
